This passage reports Kd results from PMC12171016, “hnRNP A1 induces aberrant CFTR exon 9 splicing via a newly discovered ESS element”.

In the series the target is hnRNP A1 tandem RRMs (UP1-like) (UniProt P09651 1-196). Kind of series: fluorescence anisotropy; 35 C; NMR buffer: sodium phosphate pH 6.5 (50 mM for tandem RRMs, 25 mM for single RRMs), 1 mM BME, 50 uM EDTA, no added salt stated; ITC 25 C, NMR 298 K (10% D2O), FA 35 C. The settings on record: protein: recombinant; tags: 2xHis6-lipoyl tag removed by TEV; label: 3' fluorescein. A general note: In fluorescence polarisation assays a small probe gives low polarisation when free and higher when bound to something large.
hnRNP A1 tandem RRMs (UP1-like), sequence (P09651 1-196): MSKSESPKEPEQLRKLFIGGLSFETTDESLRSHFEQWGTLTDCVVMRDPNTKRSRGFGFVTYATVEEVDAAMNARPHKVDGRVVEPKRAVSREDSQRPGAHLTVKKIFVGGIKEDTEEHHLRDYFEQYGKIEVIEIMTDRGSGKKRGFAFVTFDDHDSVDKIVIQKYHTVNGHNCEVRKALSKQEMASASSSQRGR

On to CAGGGAUUUCGCGUA (ssRNA) [CFTR exon 9 ESS 15-mer ssRNA mut4], for which the Kd (usually the concentration at which binding is half-saturated) is 0.117 µM. To CAGGGAUUUGGGGAC (ssRNA) [CFTR exon 9 ESS 15-mer ssRNA wt] belongs 0.099 µM.
